Experimental data from the DeepSol protein solubility set.

Experiment: soluble on expression in E. coli; label from the status in PepcDB or PDB records

Row | Sequence | soluble on expression in E. coli
1 | MRPKVSVALATYNGEKYIEEQLESIIKQTRAPDELVICDDCSNDETINIITKKIKNAHFDVKLVSNDKNIGYVQNFSKALEMSSGDIVFLCDQDDVWLSDKIEFIINKFNTRPDIQLLIHDVDYCKEDLTPIGQTKLQRMESNFDIESDYVVGMATAVRRSFLVHCLPVPSAPEVTHDEWLHDCARVLGCKGIVREVLALYRRHSLNVTAPSRLNVDFVTTRHYFGNESLAFLKLFRMETDLGSPDISPLVQWLDSRKMVLLDNGFSSEDRINTFIQYEEKRLRARNSRQSILRLDRWKRLFPIYDLYRSGGYHYYCGWKSALKDLLRTYALEHHHHHH | soluble
2 | MGSDKIHHHHHHAQIADRVYKTDYHIDPEKARELSVELDNISFFKDNEYTGKFTKGYSLPGLWVQGKAVYYPLRNIKLEAGVHMLIYHGANKYPSMAYQDIAYWKGDQYQKGVHVLPYFRAQMALSDHVNIVLGNIYGASNHNLIEPLYNPELNLTCDPEAGLQLLYDSKAFDLDVWVNWQSFIFREDVHQEAFTVGISSRLKYNDPASRFHFYTPVQGLVQHRGGEIDTIFNNSVQTLMNGAIGVGGVWNTGHRIFKNLNVELDATGYYQQAGEIWPFDSGYGLYARASADIYDFRVKTSYWTCEDFISMFGSPFFGAASMIDEGVTFDRPQMIYLGVEYSRQLAKGFSIGVDVDVFHHLSGDMNDADGVKQPMGSATSFTAGVYMRINPSFLIKKF | not soluble
3 | MAFNTRANAEKYLATCYNFVPAAANLDHNSGLICGGEMWYLKPESHYYKNITSFNIARGMQNSNDPLLNYWDGGQGGYNIFRGIHECNIFIDNIDRVPDMRMEEKNKWKAEVMTLKAYYIYYLMLHYGPIPLLKENISVEADLDMMQLERETINDIVTYTTDLLDEAMNIPSGLTFNVTSPRTELGRITLPIAKAIKAKLLILAASPLFNGNTMYAEFVNSEGIPFFDQEYKKEKWEAAAAACLDAINTAHEAGASLYKFDEKLNYTPSSTLQQELTLRNTITGRFNSEIIWALGSNATDGIQNLCQAHLTSYSLGNRMIRSCSQLVPSLEIVEQFYTANGVPMDEDKDYEYENRYKLTTTPEDDPIHFTPNYTTIKMHLNREPRFYAYIGFDGGKWFSIECCNDNETSSYPIKSKKGDIAGVSDELYSPTGYFTKKLVSYQNVNTSATNINYVYSFPIIRLSDLYLLYAEALNELNETPTTDVYYYVQQVRNKAGLDEGGSLVNTWRNHSNRPDKPTTQRGMREIIQKERMIELAFEGHRYHDVRRWKLGSTYLNTQIKGWSVLEQDPEYFYNVRVLFTRKFMPRDYLWPIKTNSINRNPKLVQNPQW | not soluble
4 | MGKMNHQDELPLAKVSEVDEAKRQWLQGMRHPVDTVTEPEPAEILAEFIRQHSAAGQLVARAVFLSPPYLVAEEELSVLLESIKQNGDYADIACLTGSKDDYYYSTQAMSENYAAMSLQVVEQDICRAIAHAVRFECQTYPRPYKVAMLMQAPYYFQEAQIEAAIAAMDVAPEYADIRQVESSTAVLYLFSERFMTYGKAYGLCEWFEVEQFQNP | soluble
5 | MWQAIAKQISEVTQQPFSISERESVNGGEINDCYMISNGSQRYFVKINEKAELPIFETEIESLTQLDKSDHIFVPSPIHIGTTKEHSFLVLNYLPTKSMDKDAFYELGVSLANHHLWGDQLEYGFDCDNYLGNVLQVNTWHRRWDCFFAEQRIGWQLQLLKEKGMVLGDIDTLVKNSKLILHNHQPKPALLHGDLWHGNIALSVKGPISYDPASYWGDAECDLAMVELFGGIQDSFFEGYESISSISEGFETRQHLYSLYHVLNHCNMFGGEYMFHAQQLIDKLNLNELEHHHHHH | not soluble
6 | MSLQKTSFALLVAALQLASASALAATPPVADAIWFNGPIITIDDQHPKAQAVAVKDGKILAVGDRQHVLKNKGPATQMLDLKGATLLPGFVDPHGHVSMVGFQAASANLLPPPDGTNNSIPGLQETLRRFEQQSPIPKQFGVLFGFGYDDSQLQEQRHPTKADLDAVTRDLPIAIVHQSSHLGVLNSKALELAGIDASTPNPEGGVIRRVDGSQEPNGVLEENAFFNALIRIFPKLTADQAVDMLSAGQKLYVSYGYTTIQDGRSSPDQVKTAIKAAGDGKLLADIVSYPDILTPGVKQLMVAPWYHPSNQPVVYNQHFRIGGVKLTLDGSPQGKTAWLSQPYFKPPQGQDASYAGYGVVKDADALAIYKEALANRWQILSHTNGDRAIDQLLGSMRAAEQAYPGVDVRPVMIHGQTLRKDQVAELKQLKIFPSLFPMHTYYWGDWHRQSVLGPERAENISPTQWVLQAGMKFTTHHDAPVALPDSMRVLAATVNRTTRSGYVLGPDQRVTPLQALKAMTLWSAYQHFEEDRKGSITPGKLADFAVLSANPLTVKPETLSEIQVLKTVKEGRVIYERPAKVASEGHHHHHH | soluble
7 | MIKVVVRKRPLSELEKKKKDSDIITVKNNCTLYIDEPRYKVDMTKYIERHEFIVDKVFDDTVDNFTVYENTIKPLIIDLYENGCVCSCFAYGQTGSGKTYTMLGSQPYGQSDTPGIFQYAAGDIFTFLNIYDKDNTKGIFISFYEIYCGKLYDLLQKRKMVAALENGKKEVVVKDLKILRVLTKEELILKMIDGVLLRKIGVNSQNDESSRSHAILNIDLKDINKNTSLGKIAFIDLAGSERGADTVSQNKQTQTDGANINRSLLALKECIRAMDSDKNHIPFRDSELTKVLRDIFVGKSKSIMIANISPTISCCEQTLNTLRYSSRVKNKGNSKLEGKPIPNPLLGLDSSRTGHHHHHH | soluble
8 | MTSKQSVSQCVKPPRPPAWIMQPPPDWQTPLNGIISPSERGLEHHHHHH | not soluble
9 | MLSPQTTQVAIIGAGPSGSIAAALLNKHNINCIILEKSTFPRFSIGESLLPACMESIKHAGMLNAVEDACFQFKDGAAFHCNGTFTSFDFTDKFTDGAGTTFQVQRGNFDKVLADCAKEQGVEIRYQHEITDVDVNAEKPLLSVLDENGTPYQIQADFILDASGFGRVLPKLLELEEPSCLPPRRAIFTHIKDNITDESYDRNKILVSVHPTNTQVWYWLIPFSNGTCSFGVVGEPEFFDAYSEDKVTALKQLAEEESNLKHLLNQAEYPNPCGEIMGYSANVSKLFDKNFALLGNAGEFLDPVFSSGVTIAMKSAELAADLLIKQFNQEDVNWQQDYSDKLMKGVNAFRCYVEGWYEGTFQDVIFHENPNPKIKQMICAILAGYAWDESNPFVAEPERRLKVVAELCKPLEHHHHHH | not soluble
10 | MADQKEASEAAKNREIKISSSDDEIFLVPRNVIRLSNTLNTLLVDLGLDDDEGTNAEPIPVQNVTASILKKVINWCTKHQSDPIPTEDSEKKTDGSIQDWDKKFLDIDQGTLFELILAANYLDIKGLLDVACQSVANMIKGKSPDEIRRAFNIKDDFTAEEREQIRKENAWCDD | soluble
11 | MAHHHHHHMPRIEISKDVKLTIMSYNIQMLSIPFSVHLNSWTRRNAIIDYICSLDDIYDIDILVLNEVFTKKCYKLLTSGKIKEKFPYHTNVIGRNYKRHDNYNDSSSSTGQKDGLSFHSSDTNINIESSRGISNYVSEQMEYIRKNKENHKNKLSKISEDISENSNSSYNSNFDTITGKRKFFHFVNGGVIVLSKHKILHKHALIYSSGKFPDVFCSKGAIYLKCDVMNKKVNVVATHLQAGDNKEQQKCRWKQIDELSKWVYEGIPSTFIKKFESLFFVGDFNIRYNADRLFLDKVLSDNYLNSYVTKKSLDTTYDSFLNDYCRYIERDYNYKHKYTLDYILVANNSNVEIIVPQTSIQNYYKSLYFIKFFLGIIPYKTTYIHHPSDHFPIYATFLILS | soluble
12 | TGSGELLLTSPKGSLTLFAYPGKPSLVTVSDFSAGLLDGTVAVNHMDYDLKSKHTETLVQLNGIPIQSLLDLQGASKLSATGTIRGAIPVVLDNNLFSIPEGRMDAEKNGLIIYASTPEERAAAGAGMRLTYEALGNFFYSELVSNIVMTPDGNSTISIQLKGRNPDFQNNRPVNLNLNIQQNLLDLFRSLTLSSDIEEAISKKVLENSGG | not soluble
13 | MDLSVTHMDDLKTVMEDWKNELLVYKFALDALDTKFSIISQEYNLIHGHNPIEHTKSRVKSFESIVNKLMRKGCEITTKEMKEHIHDIAGVRIICSFISDIYNVVNVLKQHEDLRIVKVKDYIQTPKPNGYRSLHLIIEMPVNLTNRVEYVKAEIQIRTIAMDFWASLEHKIYYKLNNDVPKQLTDELKEAAEIAHYLDEKMLGIKKEVD | not soluble
14 | GSHSLRYFYTAVSRPGLGEPWFIIVGYVDDMQVLRFSSKEETPRMAPWLEQEEADDWEQQTHIVTIQGQLSERNLMTLVHFYNKSMDDSHTLQWLQDCDVEPDRHLCLWYNQLAYDSEDLPTLSENPSSCTVGNSTVPQISQHLEGHCSDVLQKYLEKGKERLLRSDPPKAHVTRHPRPEGDVTLRCWALGFYPADITLTWQKDGEELTQDVEFVETRPAGDGTFQKWAAVVVPLGKVQSYTCHVDHEGLPEPLTLRWEP | soluble
